Consider two molecules from patent publication US20210107983A1 (Boehringer Ingelheim, published 2021).

Test [1] deals with T1, trypsin inhibitor from Glycine max soybean (Glycine max (soybean)).
T1 construct: unrelated negatively charged protein, amine-coupled to the chip
Nature of the test: SPR, 1 µM binder over immobilized trypsin inhibitor. The procedure: (§1) The experiment was performed on a Biacore® T200 SPR system (GE Healthcare Life Sciences). The dilution, surface preparation, and binding experiments were performed at 25° C. in 1×HBS-EP buffer prepared from 10×HBS-EP. The flow rate for both the immobilization protocol and binding experiment was at 5 μL/min.
(§2) To prepare the surface for the non-specific binding experiment, chicken egg white lysozyme and trypsin inhibitor from Glycine max soybean were coupled manually to a Biacore® series S CM5 sensor chip (GE Healthcare sciences) with the surface density of 3000-5000 RU using the amine coupling kit according to the manufacture instructions. Samples were prepared at 1 μM in 1×HBS-EP buffer. The samples were injected over activated surfaces with a 10 min association and 15 min dissociation. The data was collected using Biacore® T200 Control Software version 2.0.1 and analyzed using Biacore® T200 Evaluation Software version 3.0 (GE Healthcare Life Sciences).
A general note: Surface plasmon resonance follows binding to a sensor surface in real time, without labels.

For a further test, the target named is T2, Human CD3 E+G HuFc-6xHis (human).
T2 construct: also called HuCD3E+G-hFc; huCD3
Nature of the test: SPR, CD3E+G-hFc immobilized, binder analyte. The procedure:
To determine the affinity of the B7H6/CD3 binding protein to human and cyno CD3E+G-hFc, the experiment was performed on a Bio-Rad ProteOn™ XPR36 instrument. Briefly, HuCD3E+G-hFc and CyCD3E+G were amine-coupled on a ProteOn™ GLM sensor chip (Bio-Rad) and the B7H6/CD3 binding protein was flowed over the immobilized surface. The running buffer for this experiment and all serial dilutions were prepared in HBS-EP+. The GLM sensor chip was normalized according to Bio-Rad's recommendations. The sensor chip was activated with an equal mixture of EDC/s-NHS in the horizontal direction for 300 s at a flow rate of 30 μL/min HuCD3E+G-hFc was immobilized in the vertical direction at 0.4 μg/mL, 0.2 μg/mL and 0.1 μg/mL in 10 mM acetate pH 4.5 to L1, L2 and L3, respectively, for 300 s at a flow rate of 30 μL/min resulting in about 100 RU of HuCD3E+G-hFc on L1, 40 RU of HuCD3E+G-hFc on L2 and 0 RU of HuCD3E+G-hFc on L3. CyCD3E+G-hFc was immobilized in the vertical direction at 0.4 μg/mL, 0.2 μg/mL and 0.1 μg/mL in 10 mM acetate pH 4.5 to L4, L5 and L6, respectively, for 300 s at a flow rate of 30 μL/min resulting in about 385 RU of […], 170 RU of CyCD3E+G-hFc on L5 and 50 RU of CyCD3E+G-hFc on L6. The sensor chip was deactivated with 1M ethanolamine-HCl in the horizontal direction for 300 s at a flow rate of 30 μL/min.
(§3) The B7H6/CD3 binding protein analyte was injected horizontally over the immobilized surface for 300 s at a flow rate of 30 μL/min with a dissociation of 600 s. The concentrations of the B7H6/CD3 binding protein used were 0 nM, 1.2 nM, 3.7 nM, 11.1 nM, 33.3 nM and 100 nM.
The interspot (interactions with sensor surface) and blank (HBS-EP+ or 0 nM analyte) were subtracted from the raw data.

Test [2] concerns the target T3, Cyno B7H6-His (cynomolgus monkey).
T3 construct: also called CyB7H6; cyB7-H6
T3 chain: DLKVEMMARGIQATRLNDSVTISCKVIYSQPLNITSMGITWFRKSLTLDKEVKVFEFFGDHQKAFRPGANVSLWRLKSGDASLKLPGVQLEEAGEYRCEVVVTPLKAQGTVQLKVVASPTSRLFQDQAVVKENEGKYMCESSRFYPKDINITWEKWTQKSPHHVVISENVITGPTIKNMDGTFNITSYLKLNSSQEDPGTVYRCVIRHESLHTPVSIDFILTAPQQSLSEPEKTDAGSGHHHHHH
Description: SPR, binder captured on Protein A/G, B7H6 analyte. The procedure:
(§4) To determine the affinity of human and cyno B7H6 and human B7H1 to B7H6/CD3 binding proteins, the experiment was performed on a Biacore™ 8K instrument (GE Healthcare Life Sciences). Briefly, the B7H6/CD3 binding protein was captured via Protein A/G. The running buffer for this experiment and all serial dilutions were prepared in HBS-EP+. The CM5 sensor chip was activated with an equal mixture of EDC/NHS across both flow cells for 420 s at a flow rate of 10 μL/min and immobilized with recombinant Protein A/G (50 μg/ml in 10 mM NaOAc, pH 4.5) across all flow cells for 420 s at a flow rate of 10 μL/min resulting in about 2500 RU of Protein A/G on the surface. The sensor chip was deactivated with 1M ethanolamine-HCl across all flow cells for 420 s at a flow rate of 10 μL/min.
(§5) About 700 RU of the B7H6/CD3 binding protein was captured on flow cell 2 of the Protein A/G surface for 60 s at a flow rate of 10 μL/min. The analytes HuB7H6, CyB7H6 and HuB7H1 were injected across both flow cells over captured B7H6/CD3 binding protein for 300 s at a flow rate of 30 μL/min with a dissociation of 1200 s. The concentrations of HuB7H6 and CyB7H6 were 0 nM, 6.25 nM, 12.5 nM, 25 nM, 50 nM and 100 nM. The concentrations of HuB7H1 were 0 nM and 1 μM. The surface was regenerated by injecting 10 mM glycine-HCl, pH 1.5 for 20 s at a flow rate of 30 μL/min across both flow cells.
(§6) The reference flow cell 1 (interactions with sensor surface) and blank (HBS-EP+ or 0 nM analyte) were subtracted from the raw data.

In test [3] the target is T3, Cyno B7H6-His. Description: ratio of SPR KDs cyno/human. As for the experimental part: as §5, §6, §3
In test [4] the target is T4, chicken egg white lysozyme (chicken, UniProt P00698 19-147).
T4 construct: unrelated positively charged protein, amine-coupled to the chip; also called Lysozyme (positive)
Description: SPR, 1 µM binder over immobilized lysozyme. The procedure:
as §1, §2

The target in a further test is T5, Human B7H1 (human, UniProt Q9NZQ7 20-239).
T5 construct: also called HuB7H1; huB7-H1
Nature of the test: SPR, binder captured on Protein A/G, HuB7H1 analyte. The procedure: as §4, §5, §6

T4 sequence (P00698 19-147): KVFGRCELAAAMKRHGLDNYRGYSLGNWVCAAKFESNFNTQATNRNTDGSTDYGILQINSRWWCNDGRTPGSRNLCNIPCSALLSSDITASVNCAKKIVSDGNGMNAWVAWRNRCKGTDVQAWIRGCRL
T2 sequence (chain, as listed by the source limits assumed): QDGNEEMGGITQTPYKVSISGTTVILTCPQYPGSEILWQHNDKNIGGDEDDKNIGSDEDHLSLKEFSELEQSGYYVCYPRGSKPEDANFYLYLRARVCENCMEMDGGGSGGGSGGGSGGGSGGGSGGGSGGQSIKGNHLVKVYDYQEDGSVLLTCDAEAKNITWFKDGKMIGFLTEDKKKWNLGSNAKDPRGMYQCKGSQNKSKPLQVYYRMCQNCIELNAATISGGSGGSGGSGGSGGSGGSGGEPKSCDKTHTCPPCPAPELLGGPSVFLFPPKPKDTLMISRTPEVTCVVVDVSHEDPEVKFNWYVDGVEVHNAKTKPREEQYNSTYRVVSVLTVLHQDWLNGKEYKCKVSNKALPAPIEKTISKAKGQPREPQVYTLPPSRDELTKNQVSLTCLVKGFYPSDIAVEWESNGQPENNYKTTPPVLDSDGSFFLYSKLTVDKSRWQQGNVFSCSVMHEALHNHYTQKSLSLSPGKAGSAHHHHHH
T5 sequence (Q9NZQ7 other isoform, or with tags, fused parts or gaps limits assumed): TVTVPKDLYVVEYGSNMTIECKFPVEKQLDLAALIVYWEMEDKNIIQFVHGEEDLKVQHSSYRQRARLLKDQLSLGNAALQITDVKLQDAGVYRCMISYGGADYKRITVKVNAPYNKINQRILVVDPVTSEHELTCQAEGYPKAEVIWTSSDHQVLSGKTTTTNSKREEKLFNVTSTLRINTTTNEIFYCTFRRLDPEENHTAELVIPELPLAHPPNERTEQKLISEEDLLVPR
T1 sequence (P01070 25-205): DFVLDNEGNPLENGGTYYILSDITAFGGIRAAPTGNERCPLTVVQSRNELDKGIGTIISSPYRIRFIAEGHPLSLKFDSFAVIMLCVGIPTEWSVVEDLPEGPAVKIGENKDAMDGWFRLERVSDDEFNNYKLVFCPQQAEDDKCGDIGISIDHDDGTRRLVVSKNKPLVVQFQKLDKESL

B1: B7H6#21/CD3#1 (bispecific antibody, human IgG1, kappa, lambda, L234A L235A)
chain 1: DIQMTQSPSSLSASVGDRVTITCKASQNVGKYVAWYQQKPGKAPKSLIYSASNRYDGVPSRFSGSGSGTDFTLTISSLQPEDFATYFCQQYISYPLTFGAGTKLEIKRTVAAPSVFIFPPSDEQLKSGTASVVCLLNNFYPREAKVQWKVDNALQSGNSQESVTEQDSKDSTYSLSSTLTLSKADYEKHKVYACEVTHQGLSSPVTKSFNRGECGGGGSEGKSSGSGSESKSTEGKSSGSGSESKSTGGGGSQVQLVQSGAEVKKPGASVKVSCKASGYTFTSYWMNWMKQAPGQGLEWIGGIYLSGESTDYNEKFKGKVTMTVDTSTSTVYMELSSLRSEDTAVYYCTRRGDYFGDFWGQGTLVTVSSASTKGPSVFPLAPSSKSTSGGTAALGCLVKDYFPEPVTVSWNSGALTSGVHTFPAVLQSSGLYSLSSVVTVPSSSLGTQTYICNVNHKPSNTKVDKRVEPKSCDKTHTCPPCPAPEAAGGPSVFLFPPKPKDTLMISRTPEVTCVVVDVSHEDPEVKFNWYVDGVEVHNAKTKPREEQYNSTYRVVSVLTVLHQDWLNGKEYKCKVSNKALPAPIEKTISKAKGQPREPQVYTLPPSREEMTKNQVSLWCLVKGFYPSDIAVEWESNGQPENNYKTTPPVLDSDGSFFLYSKLTVDKSRWQQGNVFSCSVMHEALHNHYTQKSLSLSPG
chain 2: EAVVTQEPSLTVSPGGTVTLTCRSSTGAVTTSNYANWVQEKPGQLPRGLIGGTNKRAPWVPARFSGSLLGGKAALTLSGAQPEDEAEYFCALWYSNLWVFGGGTKLTVLGQPKAAPSVTLFPPSSEELQANKATLVCLISDFYPGAVKVAWKADGSPVNTGVETTTPSKQSNNKYAASSYLSLTPEQWKSHRSYSCQVTHEGSTVEKTVAPAECSGGGGSEGKSSGSGSESKSTEGKSSGSGSESKSTGGGGSEVQLVESGGGLVQPGGSLKLSCAASGFTFNTYAMNWVRQAPGKGLEWVARIRSKYNNYATYYADSVKDRFTISRDDSKNTAYLQMNNLKTEDTAVYYCVRHGNFGNSYVSWFAYWGQGTLVTVSAASTKGPSVFPLAPSSKSTSGGTAALGCLVKDYFPEPVTVSWNSGALTSGVHTFPAVLQSSGLYSLSSVVTVPSSSLGTQTYICNVNHKPSNTKVDKRVEPKSCDKTHTCPPCPAPEAAGGPSVFLFPPKPKDTLMISRTPEVTCVVVDVSHEDPEVKFNWYVDGVEVHNAKTKPREEQYNSTYRVVSVLTVLHQDWLNGKEYKCKVSNKALPAPIEKTISKAKGQPREPQVYTLPPSREEMTKNQVSLSCAVKGFYPSDIAVEWESNGQPENNYKTTPPVLDSDGSFFLVSKLTVDKSRWQQGNVFSCSVMHEALHNRFTQKSLSLSPG
notes: scFab-Fc heterodimer, one B7H6 chain and one CD3 chain
Broadly, the Kd is a measure of binding affinity in units of concentration. Turning to B1, the entries for the “Non-specific binding (RU)” value in test [1] and in test [4] were 42 RU and 8.1 RU, respectively. In addition, the dissociation constant Kd came to 4.4 nM in the test with Human CD3 E+G HuFc-6xHis and 1.4 nM with Cyno B7H6-His [2]. For the same molecule, in the test with Cyno B7H6-His [3], the “cy/hu B7-H6” value was 0.4. The binding result with Human B7H1 was “no binding (tested: 1 µM)”.

B2: B7H6#22/CD3#1 (bispecific antibody, human IgG1, kappa, lambda, L234A L235A)
chain 1: DIQMTQSPSSLSASVGDRVTITCKASQNVGKYVAWYQQKPGKAPKSLIYSASNRYDAVPSRFSGSGSGTDFTLTISSLQPEDFATYFCQQYISYPLTFGAGTKLEIKRTVAAPSVFIFPPSDEQLKSGTASVVCLLNNFYPREAKVQWKVDNALQSGNSQESVTEQDSKDSTYSLSSTLTLSKADYEKHKVYACEVTHQGLSSPVTKSFNRGECGGGGSEGKSSGSGSESKSTEGKSSGSGSESKSTGGGGSQVQLVQSGAEVKKPGASVKVSCKASGYTFTSYWMNWMKQAPGQGLEWIGGIYLSGDSTDYNEKFKGKVTMTVDTSTSTVYMELSSLRSEDTAVYYCTRRGDYFGDFWGQGTLVTVSSASTKGPSVFPLAPSSKSTSGGTAALGCLVKDYFPEPVTVSWNSGALTSGVHTFPAVLQSSGLYSLSSVVTVPSSSLGTQTYICNVNHKPSNTKVDKRVEPKSCDKTHTCPPCPAPEAAGGPSVFLFPPKPKDTLMISRTPEVTCVVVDVSHEDPEVKFNWYVDGVEVHNAKTKPREEQYNSTYRVVSVLTVLHQDWLNGKEYKCKVSNKALPAPIEKTISKAKGQPREPQVYTLPPSREEMTKNQVSLWCLVKGFYPSDIAVEWESNGQPENNYKTTPPVLDSDGSFFLYSKLTVDKSRWQQGNVFSCSVMHEALHNHYTQKSLSLSPG
chain 2: EAVVTQEPSLTVSPGGTVTLTCRSSTGAVTTSNYANWVQEKPGQLPRGLIGGTNKRAPWVPARFSGSLLGGKAALTLSGAQPEDEAEYFCALWYSNLWVFGGGTKLTVLGQPKAAPSVTLFPPSSEELQANKATLVCLISDFYPGAVKVAWKADGSPVNTGVETTTPSKQSNNKYAASSYLSLTPEQWKSHRSYSCQVTHEGSTVEKTVAPAECSGGGGSEGKSSGSGSESKSTEGKSSGSGSESKSTGGGGSEVQLVESGGGLVQPGGSLKLSCAASGFTFNTYAMNWVRQAPGKGLEWVARIRSKYNNYATYYADSVKDRFTISRDDSKNTAYLQMNNLKTEDTAVYYCVRHGNFGNSYVSWFAYWGQGTLVTVSAASTKGPSVFPLAPSSKSTSGGTAALGCLVKDYFPEPVTVSWNSGALTSGVHTFPAVLQSSGLYSLSSVVTVPSSSLGTQTYICNVNHKPSNTKVDKRVEPKSCDKTHTCPPCPAPEAAGGPSVFLFPPKPKDTLMISRTPEVTCVVVDVSHEDPEVKFNWYVDGVEVHNAKTKPREEQYNSTYRVVSVLTVLHQDWLNGKEYKCKVSNKALPAPIEKTISKAKGQPREPQVYTLPPSREEMTKNQVSLSCAVKGFYPSDIAVEWESNGQPENNYKTTPPVLDSDGSFFLVSKLTVDKSRWQQGNVFSCSVMHEALHNRFTQKSLSLSPG
notes: as for B1
With B2, the entries for the “Non-specific binding (RU)” value in test [1] and in test [4] were 39.5 RU and 7.8 RU, respectively. Further, the Kd is 5.1 nM with Human CD3 E+G HuFc-6xHis and 1.4 nM with Cyno B7H6-His [2]. Moreover, the “cy/hu B7-H6” value in the test with Cyno B7H6-His [3] worked out at 1. Also, the binding result with Human B7H1 is given as “no binding (tested: 1 µM)”.
